Measurements from patent US20190134153A1, “IMMUNOMODULATORY EFFECT OF INHALED KINASE INHIBITOR PEPTIDES IN LUNG” (MOERAE MATRIX, INC., priority 2017, published 2019).

Assays:
Experiment in all cases: Kinase Profiling Assay
Format in all cases: biochemical
Conditions in all cases: 100 μM
[1] = target: T1, ASK1(h) (Homo sapiens, UniProt Q99683)
T1 sequence (Q99683 1-1374): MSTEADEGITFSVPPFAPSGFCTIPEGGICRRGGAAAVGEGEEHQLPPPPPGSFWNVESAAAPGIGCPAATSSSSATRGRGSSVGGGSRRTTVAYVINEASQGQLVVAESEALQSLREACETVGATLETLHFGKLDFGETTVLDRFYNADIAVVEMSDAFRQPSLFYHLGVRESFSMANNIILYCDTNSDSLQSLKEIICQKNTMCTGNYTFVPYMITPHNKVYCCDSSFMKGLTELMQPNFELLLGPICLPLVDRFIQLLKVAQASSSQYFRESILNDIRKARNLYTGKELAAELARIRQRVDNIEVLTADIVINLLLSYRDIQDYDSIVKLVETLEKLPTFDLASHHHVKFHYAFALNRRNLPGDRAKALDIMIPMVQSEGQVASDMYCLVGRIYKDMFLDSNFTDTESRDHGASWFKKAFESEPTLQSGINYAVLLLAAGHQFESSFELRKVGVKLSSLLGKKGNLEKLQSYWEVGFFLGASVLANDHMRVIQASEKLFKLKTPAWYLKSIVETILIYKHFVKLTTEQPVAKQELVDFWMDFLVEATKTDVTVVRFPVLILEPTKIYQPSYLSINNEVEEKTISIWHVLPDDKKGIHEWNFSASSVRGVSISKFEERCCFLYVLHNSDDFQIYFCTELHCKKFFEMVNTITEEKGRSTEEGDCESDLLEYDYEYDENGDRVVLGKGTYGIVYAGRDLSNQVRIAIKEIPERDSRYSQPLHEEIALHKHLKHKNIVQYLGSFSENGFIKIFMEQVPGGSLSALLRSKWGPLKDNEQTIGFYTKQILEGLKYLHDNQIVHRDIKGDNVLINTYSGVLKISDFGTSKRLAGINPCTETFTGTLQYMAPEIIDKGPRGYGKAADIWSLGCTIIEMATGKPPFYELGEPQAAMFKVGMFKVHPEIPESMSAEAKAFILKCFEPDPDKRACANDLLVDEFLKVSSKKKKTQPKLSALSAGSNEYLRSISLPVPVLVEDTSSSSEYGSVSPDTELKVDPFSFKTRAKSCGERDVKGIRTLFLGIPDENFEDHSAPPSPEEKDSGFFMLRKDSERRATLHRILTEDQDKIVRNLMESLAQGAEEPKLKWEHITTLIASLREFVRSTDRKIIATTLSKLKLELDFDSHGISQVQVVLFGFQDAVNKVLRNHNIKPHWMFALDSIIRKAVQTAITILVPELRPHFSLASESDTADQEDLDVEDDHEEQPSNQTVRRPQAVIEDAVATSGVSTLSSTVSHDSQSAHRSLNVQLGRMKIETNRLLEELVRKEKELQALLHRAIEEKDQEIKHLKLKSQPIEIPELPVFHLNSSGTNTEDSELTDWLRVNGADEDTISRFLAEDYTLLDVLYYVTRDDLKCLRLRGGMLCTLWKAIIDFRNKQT

[2] = target: T2, CaMKIV(h) (Homo sapiens, UniProt Q16566)
T2 sequence (Q16566 1-473): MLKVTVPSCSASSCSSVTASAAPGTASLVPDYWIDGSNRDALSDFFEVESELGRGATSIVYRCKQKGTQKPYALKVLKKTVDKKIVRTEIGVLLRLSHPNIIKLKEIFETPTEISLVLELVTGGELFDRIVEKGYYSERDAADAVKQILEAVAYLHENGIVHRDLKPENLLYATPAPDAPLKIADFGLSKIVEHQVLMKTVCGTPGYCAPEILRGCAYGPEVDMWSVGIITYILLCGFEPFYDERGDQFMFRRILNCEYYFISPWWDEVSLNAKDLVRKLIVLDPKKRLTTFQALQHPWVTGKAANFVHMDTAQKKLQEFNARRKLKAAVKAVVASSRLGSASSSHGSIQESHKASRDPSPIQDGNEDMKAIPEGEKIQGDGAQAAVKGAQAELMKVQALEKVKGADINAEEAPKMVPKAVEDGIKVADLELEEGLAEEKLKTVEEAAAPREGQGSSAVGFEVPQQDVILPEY

[3] = target: EGFR(L858R)(h) (Homo sapiens, UniProt P00533, L858R)
[4] = target: NEK7(h) (Homo sapiens, UniProt Q8TDX7)
NEK7(h), sequence (Q8TDX7 whole entry): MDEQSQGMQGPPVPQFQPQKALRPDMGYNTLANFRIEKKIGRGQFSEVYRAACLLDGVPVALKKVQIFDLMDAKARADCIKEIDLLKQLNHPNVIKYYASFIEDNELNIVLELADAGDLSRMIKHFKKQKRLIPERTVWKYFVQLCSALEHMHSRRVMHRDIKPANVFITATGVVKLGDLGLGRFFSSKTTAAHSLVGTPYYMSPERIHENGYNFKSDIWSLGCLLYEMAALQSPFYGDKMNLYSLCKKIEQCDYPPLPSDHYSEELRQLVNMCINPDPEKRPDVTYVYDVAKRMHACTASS

[5] = target: T3, TSSK1(h) (Homo sapiens, UniProt Q9BXA7)
T3 sequence (Q9BXA7 1-367): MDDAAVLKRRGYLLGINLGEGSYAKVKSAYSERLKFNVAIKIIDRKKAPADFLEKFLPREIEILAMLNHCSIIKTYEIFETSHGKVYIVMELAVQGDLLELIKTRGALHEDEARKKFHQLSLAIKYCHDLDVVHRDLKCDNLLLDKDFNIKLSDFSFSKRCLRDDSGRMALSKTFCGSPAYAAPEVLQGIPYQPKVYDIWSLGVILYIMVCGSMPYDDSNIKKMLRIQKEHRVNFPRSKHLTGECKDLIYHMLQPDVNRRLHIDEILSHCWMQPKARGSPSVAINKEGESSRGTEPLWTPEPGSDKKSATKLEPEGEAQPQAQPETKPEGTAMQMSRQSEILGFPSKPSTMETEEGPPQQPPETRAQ

[6] = target: IR(h), activated (Homo sapiens, UniProt P06213)

Row | Sequence | % activity [1] | % activity [2] | % activity [3] | % activity [4] | % activity [5] | % activity [6]
1 | YARAAARQARAKALNRQLGVA [MMI-0200] | 101% | 71% | 120% | 96% | 98% | –
2 | KAFAKLAARLYRKALARQLGVAA [MMI-0400] | 69% | 18% | 52% | 87% | 79% | 59%
3 | HRRIKAWLKKIKALARQLGVAA [MMI-0500] | −4% | −1% | 26% | 89% | 46% | 90%
4 | FAKLAARLYRKALARQLGVAA [MMI-0300] | 80% | 17% | – | 84% | 79% | 79%
